T1: PUF4 RNA-binding domain (Saccharomyces cerevisiae, UniProt P25339 537-888)
T1 sequence: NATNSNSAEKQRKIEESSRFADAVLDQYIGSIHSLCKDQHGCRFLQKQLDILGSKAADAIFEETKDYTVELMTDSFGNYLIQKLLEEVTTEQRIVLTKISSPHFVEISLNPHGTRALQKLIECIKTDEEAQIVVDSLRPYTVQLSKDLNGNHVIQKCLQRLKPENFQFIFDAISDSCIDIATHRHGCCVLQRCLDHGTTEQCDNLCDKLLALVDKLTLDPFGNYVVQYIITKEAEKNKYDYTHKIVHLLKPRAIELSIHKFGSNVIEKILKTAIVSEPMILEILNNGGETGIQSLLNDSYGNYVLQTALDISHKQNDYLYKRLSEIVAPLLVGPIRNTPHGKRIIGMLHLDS


Biological target: T1, PUF4 RNA-binding domain
Experiment: Mg; RNA-MaP; 20 mM Na-HEPES pH 7.4, 30 mM KOAc, 0.75 mM MgCl2, 0.1% Tween-20, 5% glycerol, 0.1 mg/mL BSA, 2 mM DTT; 25 C; 0.0125-409.6 nM protein
Conditions: tags: N-His6-TEV cleaved; C-SNAP kept, Cy3B-labelled; label: tethered on chip by stalled RNA polymerase

Binder	Kd
UCUCUUUGUUUAUUUUCUCUU (ssRNA) [Ib_S1_P4E.1_K4.1_C4.1_H4.1_[A4T]_A4.1_F4.1_[A9T]_T4.1]	353 nM
UCUCUUUGUACAUGAUCUCUU (ssRNA) [Ic_S1_P4E.1_K4.1_C4.1_H4.1_A4.1_[T5C]_F4.1_[T8G]_T4.1]	20.2 nM
UCUCUUUGUAAAUGAUCUCUU (ssRNA) [Ib_S1_P4E.1_K4.1_C4.1_H4.1_A4.1_[T5A]_F4.1_[T8G]_T4.1]	113 nM
UCUCUUUGCAUAUUAUCUCUU (ssRNA) [Ia_S1_P4E.1_K4.1_C4.1_H4.1_[T3C]_A4.1_F4.1_T4.1]	76.5 nM
Ic_S4_P4E.1_K4.1_C4.1_H4.1_A4.1_[T5G]_[A6T]_[T7A]_F4.1_[A9G]_T4.1 (ssRNA) RNA: UUUGACAACUGAUCGUUCUUUCUUGUAGUAUGUUCUUUCUCGAUCAGUUGUCUUU	37.3 nM
Ic_S4_P4E.1_K4.1_C4.1_H4.1_A4.1_[T5C]_[A6C]_[T7C]_F4.1_[T8C]_[A9G]_T4.1 (ssRNA) RNA: UUUGACAACUGAUCGUUCUUUCUUGUACCCCGUUCUUUCUCGAUCAGUUGUCUUU	642 nM
Ic_S4_P4E.1_K4.1_C4.1_H4.1_A4.1_[T5C]_[A6C]_[T7G]_F4.1_[T8G]_[A9T]_T4.1 (ssRNA) RNA: UUUGACAACUGAUCGUUCUUUCUUGUACCGGUUUCUUUCUCGAUCAGUUGUCUUU	2190 nM
Ic_S4_P4E.1_K4.1_C4.1_H4.1_A4.1_[T5C]_[A6G]_[T7C]_F4.1_[T8A]_[A9G]_T4.1 (ssRNA) RNA: UUUGACAACUGAUCGUUCUUUCUUGUACGCAGUUCUUUCUCGAUCAGUUGUCUUU	1470 nM
Ic_S4_P4E.1_K4.1_C4.1_H4.1_A4.1_[T5C]_[A6C]_F4.1_[T8G]_[A9C]_T4.1 (ssRNA) RNA: UUUGACAACUGAUCGUUCUUUCUUGUACCUGCUUCUUUCUCGAUCAGUUGUCUUU	93 nM
Ic_S4_P4E.1_K4.1_C4.1_H4.1_A4.1_[T5C]_[A6C]_[T7A]_F4.1_[A9T]_T4.1 (ssRNA) RNA: UUUGACAACUGAUCGUUCUUUCUUGUACCAUUUUCUUUCUCGAUCAGUUGUCUUU	4.54 nM
Ic_S4_P4E.1_K4.1_C4.1_H4.1_A4.1_[T5C]_[A6C]_[T7A]_F4.1_[T8A]_[A9T]_T4.1 (ssRNA) RNA: UUUGACAACUGAUCGUUCUUUCUUGUACCAAUUUCUUUCUCGAUCAGUUGUCUUU	45.5 nM
Ic_S4_P4E.1_K4.1_C4.1_H4.1_A4.1_[T5C]_[A6G]_F4.1_[T8G]_[A9T]_T4.1 (ssRNA) RNA: UUUGACAACUGAUCGUUCUUUCUUGUACGUGUUUCUUUCUCGAUCAGUUGUCUUU	33.7 nM
Ic_S4_P4E.1_K4.1_C4.1_H4.1_A4.1_[T5C]_[A6G]_[T7C]_F4.1_[T8G]_[A9T]_T4.1 (ssRNA) RNA: UUUGACAACUGAUCGUUCUUUCUUGUACGCGUUUCUUUCUCGAUCAGUUGUCUUU	400 nM
Ic_S4_P4E.1_K4.1_C4.1_H4.1_A4.1_[T5G]_[A6T]_[T7A]_F4.1_[A9T]_T4.1 (ssRNA) RNA: UUUGACAACUGAUCGUUCUUUCUUGUAGUAUUUUCUUUCUCGAUCAGUUGUCUUU	40.6 nM
Ic_S4_P4E.1_K4.1_C4.1_H4.1_A4.1_[T5C]_[A6G]_[T7C]_F4.1_[T8C]_[A9C]_T4.1 (ssRNA) RNA: UUUGACAACUGAUCGUUCUUUCUUGUACGCCCUUCUUUCUCGAUCAGUUGUCUUU	142 nM
Ic_S4_P4E.1_K4.1_C4.1_H4.1_A4.1_[T5C]_[A6C]_[T7G]_F4.1_[A9T]_T4.1 (ssRNA) RNA: UUUGACAACUGAUCGUUCUUUCUUGUACCGUUUUCUUUCUCGAUCAGUUGUCUUU	48.5 nM
Ic_S4_P4E.1_K4.1_C4.1_H4.1_A4.1_[T5G]_[A6T]_[T7A]_F4.1_[A9C]_T4.1 (ssRNA) RNA: UUUGACAACUGAUCGUUCUUUCUUGUAGUAUCUUCUUUCUCGAUCAGUUGUCUUU	173 nM
Ic_S4_P4E.1_K4.1_C4.1_H4.1_A4.1_[T5C]_[A6C]_[T7C]_F4.1_[A9C]_T4.1 (ssRNA) RNA: UUUGACAACUGAUCGUUCUUUCUUGUACCCUCUUCUUUCUCGAUCAGUUGUCUUU	31.2 nM
Ic_S4_P4E.1_K4.1_C4.1_H4.1_A4.1_[T5G]_[A6T]_F4.1_[T8A]_[A9C]_T4.1 (ssRNA) RNA: UUUGACAACUGAUCGUUCUUUCUUGUAGUUACUUCUUUCUCGAUCAGUUGUCUUU	875 nM
Ic_S4_P4E.1_K4.1_C4.1_H4.1_A4.1_[T5C]_[A6C]_[T7A]_F4.1_[T8C]_[A9T]_T4.1 (ssRNA) RNA: UUUGACAACUGAUCGUUCUUUCUUGUACCACUUUCUUUCUCGAUCAGUUGUCUUU	47.1 nM
Ic_S4_P4E.1_K4.1_C4.1_H4.1_A4.1_[T5C]_[A6G]_[T7A]_F4.1_[T8C]_[A9C]_T4.1 (ssRNA) RNA: UUUGACAACUGAUCGUUCUUUCUUGUACGACCUUCUUUCUCGAUCAGUUGUCUUU	994 nM
Ic_S4_P4E.1_K4.1_C4.1_H4.1_A4.1_[T5C]_[A6G]_[T7G]_F4.1_[A9C]_T4.1 (ssRNA) RNA: UUUGACAACUGAUCGUUCUUUCUUGUACGGUCUUCUUUCUCGAUCAGUUGUCUUU	514 nM
Ic_S4_P4E.1_K4.1_C4.1_H4.1_A4.1_[T5C]_[A6G]_F4.1_[T8C]_[A9G]_T4.1 (ssRNA) RNA: UUUGACAACUGAUCGUUCUUUCUUGUACGUCGUUCUUUCUCGAUCAGUUGUCUUU	395 nM
Ic_S4_P4E.1_K4.1_C4.1_H4.1_A4.1_[T5C]_[A6G]_F4.1_[A9T]_T4.1 (ssRNA) RNA: UUUGACAACUGAUCGUUCUUUCUUGUACGUUUUUCUUUCUCGAUCAGUUGUCUUU	11.9 nM
Ic_S4_P4E.1_K4.1_C4.1_H4.1_A4.1_[T5C]_[A6C]_[T7G]_F4.1_[T8C]_[A9T]_T4.1 (ssRNA) RNA: UUUGACAACUGAUCGUUCUUUCUUGUACCGCUUUCUUUCUCGAUCAGUUGUCUUU	150 nM

Binder	Kd
Ic_S4_P4E.1_K4.1_C4.1_H4.1_A4.1_[T5C]_[A6G]_[T7A]_F4.1_[T8C]_T4.1 (ssRNA) RNA: UUUGACAACUGAUCGUUCUUUCUUGUACGACAUUCUUUCUCGAUCAGUUGUCUUU	436 nM
Ic_S4_P4E.1_K4.1_C4.1_H4.1_A4.1_[T5C]_[A6C]_[T7C]_F4.1_[T8A]_[A9C]_T4.1 (ssRNA) RNA: UUUGACAACUGAUCGUUCUUUCUUGUACCCACUUCUUUCUCGAUCAGUUGUCUUU	1090 nM
Ic_S4_P4E.1_K4.1_C4.1_H4.1_A4.1_[T5C]_[A6G]_F4.1_[T8A]_[A9C]_T4.1 (ssRNA) RNA: UUUGACAACUGAUCGUUCUUUCUUGUACGUACUUCUUUCUCGAUCAGUUGUCUUU	316 nM
Ic_S4_P4E.1_K4.1_C4.1_H4.1_A4.1_[T5C]_[A6G]_F4.1_[T8A]_[A9T]_T4.1 (ssRNA) RNA: UUUGACAACUGAUCGUUCUUUCUUGUACGUAUUUCUUUCUCGAUCAGUUGUCUUU	30.2 nM
Ic_S4_P4E.1_K4.1_C4.1_H4.1_A4.1_[T5C]_[A6C]_[T7C]_F4.1_[T8G]_[A9G]_T4.1 (ssRNA) RNA: UUUGACAACUGAUCGUUCUUUCUUGUACCCGGUUCUUUCUCGAUCAGUUGUCUUU	1370 nM
Ic_S4_P4E.1_K4.1_C4.1_H4.1_A4.1_[T5C]_[A6C]_F4.1_[T8G]_[A9G]_T4.1 (ssRNA) RNA: UUUGACAACUGAUCGUUCUUUCUUGUACCUGGUUCUUUCUCGAUCAGUUGUCUUU	431 nM
Ic_S4_P4E.1_K4.1_C4.1_H4.1_A4.1_[T5C]_[A6C]_[T7A]_F4.1_[T8C]_T4.1 (ssRNA) RNA: UUUGACAACUGAUCGUUCUUUCUUGUACCACAUUCUUUCUCGAUCAGUUGUCUUU	151 nM
Ic_S4_P4E.1_K4.1_C4.1_H4.1_A4.1_[T5C]_[A6G]_[T7C]_F4.1_[T8A]_T4.1 (ssRNA) RNA: UUUGACAACUGAUCGUUCUUUCUUGUACGCAAUUCUUUCUCGAUCAGUUGUCUUU	657 nM
Ic_S4_P4E.1_K4.1_C4.1_H4.1_A4.1_[T5C]_[A6G]_[T7C]_F4.1_[T8G]_[A9G]_T4.1 (ssRNA) RNA: UUUGACAACUGAUCGUUCUUUCUUGUACGCGGUUCUUUCUCGAUCAGUUGUCUUU	1800 nM
Ic_S4_P4E.1_K4.1_C4.1_H4.1_A4.1_[T5C]_[A6C]_[T7A]_F4.1_T4.1 (ssRNA) RNA: UUUGACAACUGAUCGUUCUUUCUUGUACCAUAUUCUUUCUCGAUCAGUUGUCUUU	0.476 nM
Ic_S4_P4E.1_K4.1_C4.1_H4.1_A4.1_[T5G]_[A6T]_F4.1_[T8C]_[A9T]_T4.1 (ssRNA) RNA: UUUGACAACUGAUCGUUCUUUCUUGUAGUUCUUUCUUUCUCGAUCAGUUGUCUUU	96 nM
Ic_S4_P4E.1_K4.1_C4.1_H4.1_A4.1_[T5C]_[A6G]_[T7C]_F4.1_T4.1 (ssRNA) RNA: UUUGACAACUGAUCGUUCUUUCUUGUACGCUAUUCUUUCUCGAUCAGUUGUCUUU	2.22 nM
Ic_S4_P4E.1_K4.1_C4.1_H4.1_A4.1_[T5G]_[A6T]_[T7A]_F4.1_T4.1 (ssRNA) RNA: UUUGACAACUGAUCGUUCUUUCUUGUAGUAUAUUCUUUCUCGAUCAGUUGUCUUU	2.95 nM
Ic_S4_P4E.1_K4.1_C4.1_H4.1_A4.1_[T5C]_[A6C]_[T7A]_F4.1_[A9C]_T4.1 (ssRNA) RNA: UUUGACAACUGAUCGUUCUUUCUUGUACCAUCUUCUUUCUCGAUCAGUUGUCUUU	15.2 nM
Ic_S4_P4E.1_K4.1_C4.1_H4.1_A4.1_[T5G]_[A6T]_F4.1_[A9G]_T4.1 (ssRNA) RNA: UUUGACAACUGAUCGUUCUUUCUUGUAGUUUGUUCUUUCUCGAUCAGUUGUCUUU	65 nM
Ic_S4_P4E.1_K4.1_C4.1_H4.1_A4.1_[T5C]_[A6G]_[T7G]_F4.1_[T8C]_[A9T]_T4.1 (ssRNA) RNA: UUUGACAACUGAUCGUUCUUUCUUGUACGGCUUUCUUUCUCGAUCAGUUGUCUUU	488 nM
Ic_S4_P4E.1_K4.1_C4.1_H4.1_A4.1_[T5C]_[A6G]_F4.1_[T8C]_[A9C]_T4.1 (ssRNA) RNA: UUUGACAACUGAUCGUUCUUUCUUGUACGUCCUUCUUUCUCGAUCAGUUGUCUUU	35 nM
Ic_S4_P4E.1_K4.1_C4.1_H4.1_A4.1_[T5C]_[A6C]_[T7G]_F4.1_[T8C]_[A9G]_T4.1 (ssRNA) RNA: UUUGACAACUGAUCGUUCUUUCUUGUACCGCGUUCUUUCUCGAUCAGUUGUCUUU	827 nM
Ic_S4_P4E.1_K4.1_C4.1_H4.1_A4.1_[T5C]_[A6G]_[T7G]_F4.1_[A9T]_T4.1 (ssRNA) RNA: UUUGACAACUGAUCGUUCUUUCUUGUACGGUUUUCUUUCUCGAUCAGUUGUCUUU	158 nM
Ic_S4_P4E.1_K4.1_C4.1_H4.1_A4.1_[T5C]_[A6C]_[T7C]_F4.1_[T8G]_[A9C]_T4.1 (ssRNA) RNA: UUUGACAACUGAUCGUUCUUUCUUGUACCCGCUUCUUUCUCGAUCAGUUGUCUUU	1190 nM
Ic_S4_P4E.1_K4.1_C4.1_H4.1_A4.1_[T5G]_[A6T]_F4.1_[A9T]_T4.1 (ssRNA) RNA: UUUGACAACUGAUCGUUCUUUCUUGUAGUUUUUUCUUUCUCGAUCAGUUGUCUUU	55.8 nM
Ic_S4_P4E.1_K4.1_C4.1_H4.1_A4.1_[T5G]_[A6T]_F4.1_[T8G]_[A9T]_T4.1 (ssRNA) RNA: UUUGACAACUGAUCGUUCUUUCUUGUAGUUGUUUCUUUCUCGAUCAGUUGUCUUU	291 nM
Ic_S4_P4E.1_K4.1_C4.1_H4.1_A4.1_[T5C]_[A6C]_[T7G]_F4.1_[T8C]_[A9C]_T4.1 (ssRNA) RNA: UUUGACAACUGAUCGUUCUUUCUUGUACCGCCUUCUUUCUCGAUCAGUUGUCUUU	973 nM
UCUCUUUGUCUAUUUUCUCUU (ssRNA) [Ib_S1_P4E.1_K4.1_C4.1_H4.1_[A4C]_A4.1_F4.1_[A9T]_T4.1]	807 nM
